Measurements published in patent publication US20250277050A1 (MEDICAL COLLEGE OF WISCONSIN, published 2025).

Legend:
[1] = biological target: T1, human CD30 expressed on the cell surface (human, UniProt P28908 19-595); assay: flow cytometry on CD30+ and CD30- cell lines
T1 construct: whole, on cells; also called huCD30; cell-surface expressed CD30
T1 sequence (looked up): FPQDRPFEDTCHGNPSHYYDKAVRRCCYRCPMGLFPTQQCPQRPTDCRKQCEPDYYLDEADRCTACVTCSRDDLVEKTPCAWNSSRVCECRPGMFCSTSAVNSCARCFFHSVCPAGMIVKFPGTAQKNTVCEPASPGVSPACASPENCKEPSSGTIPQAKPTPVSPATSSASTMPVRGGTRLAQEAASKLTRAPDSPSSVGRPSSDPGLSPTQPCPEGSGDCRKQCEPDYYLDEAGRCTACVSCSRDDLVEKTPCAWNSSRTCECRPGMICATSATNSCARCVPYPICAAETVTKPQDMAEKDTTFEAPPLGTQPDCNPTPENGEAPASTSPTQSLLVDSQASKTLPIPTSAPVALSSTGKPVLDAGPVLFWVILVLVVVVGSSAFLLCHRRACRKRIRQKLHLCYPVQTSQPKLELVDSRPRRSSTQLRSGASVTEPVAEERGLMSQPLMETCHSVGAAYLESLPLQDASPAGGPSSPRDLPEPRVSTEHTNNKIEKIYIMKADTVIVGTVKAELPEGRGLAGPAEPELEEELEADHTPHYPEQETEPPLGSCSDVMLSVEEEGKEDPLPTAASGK
Method: Flow cytometry analysis was preformed using purified antibody on CD30+ cell lines (SU-DHL-1, RPMI6666, […]) and a CD30− cell line (OCIAML2). A commercially available α-huCD30 antibody (clone BY88) and an isotype control were also tested.
We have employed hybridoma technology to generate novel murine anti-human CD30 mAbs. Mice were immunized and boosted with purified human GST-tagged CD30. Mouse spleen cells were then harvested and fused with myeloma cells to generate antibody secreting hybridoma. Hybridoma supernatants were screened for specificity to purified CD30 protein by ELISA, and GST specific clones were eliminated. […] Specific binding of our mAbs to cell-surface expressed CD30 was assessed by flow cytometry (FIG. 1) using 293T cells (CD30−), lentiviral transduced 293T cells expressing huCD30, and K562 cells which are naturally CD30+. The 293T (CD30−), 293T LV huCD30 (transduced with human CD30), SU-DHL-1 (lymphoma), RPMI.6666 (lymphoma) or K562 (CML) cell lines were incubated with each antibody in the form of unpurified hybridoma supernatant, and then incubated with an Alexa Fluor 647-labeled anti-mouse IgG antibody. Cell-associated fluorescence was determined by FACS.

[2] = biological target: T1, human CD30 expressed on the cell surface; assay: flow cytometry, purified antibody on cells with CD30 surface expression

Binder	binding result [1]	binding result [2]
8D10 (antibody, V domains shown, Murine anti-human CD30 monoclonal antibody from a hybridoma, detected with anti-mouse IgG; also called monoclonal antibody 8D10; anti-CD30 mAb 8D10) VH: QVQLQESGTELVKPGASVKLSCKASGYTFTSYWMHWMKQRPGQGLEWIGNINPSNGGTNYNEKFKNKATLTVDKSSSTAYMQLSSLTSEDSAVYYCARRDYYYGSSYGFDVWGTGTTVTVSS VL: DIVMTQSPASQSASLGESVTITCLASQTIGTWLAWYQQKPGKSPQFLIYAATSLADGVPSRFSGSGSGTKFSFKISSLQAEDFVSYYCQQLYSTPFTFGGGTKLEIK	binds	–
15B8 (antibody, V domains shown, Murine anti-human CD30 monoclonal antibody from a hybridoma, detected with anti-mouse IgG; also called monoclonal antibody 15B8) VH: QVQLEQSGTELVKPGASVKLSCKASGYTFTSYWMHWVKQRPGQGLEWIGNINPSNGGTNYNEKFKSKATLTVDKSSSTAYMQLSSLTSEDSAIYYCARRNNYYASSPFAYWGQGTLVSVSA VL: DIVMTQTPASLSASVGETVTITCRASGNIHNYLAWYQQKQGKSPQLLVYNAKTLADGVPSRFSGSGSGTQYSLKINSLQPEDFGSYYCQHFWSTPFTFGSGTKLEIK	–	binds
10C2 (antibody, V domains shown, Murine anti-human CD30 monoclonal antibody from a hybridoma, detected with anti-mouse IgG; also called monoclonal antibody 10C2; anti-CD30 mAb 10C2) VH: QVQLEQSGPVLVKPGASVKMSCKASGYTFTDYYMNWVKQSHGKSLEWIGVINPYNGGTSYNQKFKGKATLTVDKSSSTACMELNCLTSEDSAVYYCTLGAYWGQGTSVTVSS VL: not shown	binds	–
12B1 (antibody, V domains shown, Murine anti-human CD30 monoclonal antibody from a hybridoma, detected with anti-mouse IgG; also called monoclonal antibody 12B1) VH: EVKLEESGTELVKPGASVKLSCKASGYTFTSYWMHWVKQRPGQGLEWIGNINPTNGGTNYNEKFKSKATLTVDKSSRTAYMQLSSLTSGDSAVYYCARRDFITTSGFAYWGQGTLVTVSA VL: DIVMTQTTASLSTSVGETVTITCRASGNLHSYLTWYQQKQGKSPQLLVYNAKTLADGVPSRFSGSGSGTQYSLKIDSLQPEDFGSYYCQHFWTTPFTFGSGTKLEIK	binds	–
13H1 (antibody, V domains shown, Murine anti-human CD30 monoclonal antibody from a hybridoma, detected with anti-mouse IgG; also called monoclonal antibody 13H1) VH: QVQLQQSGTELVKPGASVKLSCKASGHTFTSYWMHWVKQRPGQGLEWIGNINPSNGGTNYNEKFKSKATLTVDKSSSTAYMQLSSLTSEDSAVYYCARRGYYGSSSYWSFDVWGTGTTVTVSS VL: DIVMTQTPKSMSMSVGERVTLSCKASENVGTYVSWYQQKPEQSPKVLIYGASNRFTGVPDRFTGSGSATDFTLTISSVQTEDLADYHCGQSYSYPLTFGAGTKLELK	binds	–
